Data on 2 substances can be found in publication PMC2757159.

The target of experiment [1] is human copper chaperone for SOD1 (human). Nature of the experiment: SEC. In general terms: In gel filtration, larger molecules generally elute earlier.
For experiment [2] the target is unchanged. Nature of the experiment: SEC. The source holds these as a separate data set.
The target is the same in experiment [3]. Nature of the experiment: native gel or EMSA.
In experiment [4] the target is yeast copper chaperone for SOD1 (yeast). Nature of the experiment: native gel or EMSA.

By stoichiometry N is commonly meant the number of molecules, sites or subunits per partner or assembly. As to “human copper chaperone for SOD1 (natural protein)”, the stoichiometry N in experiment [1] and in experiment [2] was 4 in each case.
For the substance “human H46R/H48Q copper-zinc superoxide dismutase (SOD1) double mutant (from UniProt P00441 1-154) (enzyme)”, the stoichiometry N in experiment [3] and in experiment [4] was 1 SOD1:CCS in each case.
